Here are results for three molecules from publication PMC11258689, “A Snake Venom Peptide and Its Derivatives Prevent Aβ42 Aggregation and Eliminate Toxic Aβ42 Aggregates In Vitro” (ACS Chemical Neuroscience, 2024).

Common to all, as to conditions: both partners purified
Assay [1] concerns the target T1, amyloid-β (1–42) (UniProt P05067 672-713).
T1 construct: also called Aβ42; Aβ (1–42); source: bought: Bachem (Bubendorf, Switzerland); suspended in HFIP, lyophilized
In words: SPR; Biacore T200; CDP-1 immobilised by amine coupling (1916.5 RU); Aβ42 as analyte 1.85 to 0.02 μM; 10 mM HEPES + 50 mM NaCl + 0.05% Tween 20, 25 °C; multicycle; methods: 1:1 kinetic fit with global Rmax (the table's head says steady-state fitting).

The target of assay [2] is T1, amyloid-β (1–42). In words: SPR; Biacore T200; Aβ42 immobilised on a CM-5 chip by amine coupling (900 RU); peptides as analytes 50 to 0.02 μM; 10 mM HEPES + 50 mM NaCl + 0.05% Tween 20, 25 °C, 30 μL/min; multicycle; steady-state affinity model. For orientation: SPR reads the build-up and loss of mass on a sensor chip optically.
The target in assay [3] is T1, amyloid-β (1–42). The assay is described as above. This is another data set of the same source.

No end group written: not given here.

B1: crotamine derivative peptide CDP-1 (peptide)
peptide: KMDCRWRWKCCKK
modifications: acetylated at the N-terminus; methylated at the C-terminus
notes: crotamine of Crotalus durissus terrificus venom, Lys27 to Lys39; […]; L-amino acids; For SPR this peptide was immobilised by amine coupling (1916.5 RU); also called crotamine (Lys27–Lys39); mother L-peptide CDP-1; source: synthetic peptide (Genscript, purity >95%)
For orientation: Kd means the free concentration of one partner at which half of the binding sites on the other are occupied at equilibrium, for simple one-to-one binding. Regarding B1, the Kd in assay [1] is 0.41 µM.

B2: crotamine derivative peptide CDP-6 (peptide)
peptide: Ac-KMDSRWRWKCSKK
modifications: not fully specified (C-terminus); also: methylated at the C-terminus
notes: positions worked out from Lys27–Lys39; […]; L-amino acids; source: synthetic peptide (Genscript, purity >95%)
Take B2: in assay [2], the dissociation constant (Kd) stood at 26.4 µM.

B3: crotamine derivative peptide CDP-2 (peptide)
peptide: Ac-KMDSRWRWKSSKK
modifications: not fully specified (C-terminus); also: methylated at the C-terminus
notes: […]; L-amino acids; source: synthetic peptide (Genscript, purity >95%)
With B3, in assay [3], the Kd stood at 3.25 µM.
